B1: OR4K15 (parent)
chain: GUUAACGGUCAUAGGCCAUGGAAACUAGGAGCACCAUUUCGCUGCCAGUGAAGAAAUGAACAAAGAAAAUCUGGGCCAGGCAGGCAUCAAAAGAAAUAGUCUUGCGCUCAACCAGAAAGUCUGUAAUCAUUUUAAGGGUA

Variants of: B1
Test: self-cleavage, relative activity (ratio to wild type); higher = more cleavage; in vitro, sequencing; the parent is a self-cleaving ribozyme

Variant | self-cleavage
U12A U102A | 1.08
A23U U124C | 1.64
U2A A47G | 1.42
A47U U87C | 1.34
A78C U132C | 0.33
U100A G123A | 0.47
A63G A66C | 0.27
U38C A98U | 1.89
A54G A89U | 1.61
A89U U103C | 1.12
C16A A60G | 0.51
C25U U87C | 1.11
A63U A91U | 1.05
A51G A118G | 1.29
C61U A91G | 0.87
A66C U100C | 1.6
U9A A22G | 1.7
A11C U49C | 1.57
A24U A98G | 0.45
G21A A68G | 1.55
C10U U124A | 0.36
A30G A62C | 1.38
A18G U108A | 0.03
G73U A118G | 0.02

Variant | self-cleavage
U100A U122C | 0.28
A98G A135C | 0.44
A95G U102A | 2.24
G74U A114U | 0.04
U97C U108A | 0
G20U U122A | 2.45
A96U A117G | 1.75
A62G C109U | 0.53
A63U U70C | 1.68
A36U A91C | 1.76
U39A U132C | 1.97
A56G U103C | 0.25
U9C A116U | 0.55
U108C A110G | 0.01
A66G A90C | 0.17
G8A A22G | 1.39
A64G A89G | 1.49
U9C A92G | 0.82
U26C U131C | 1.04
U2G A62G | 0.65
U43A A51G | 1.64
A51G A67G | 1.07
U2G A69U | 0.94
U9A U130C | 1.33

Variant | self-cleavage
A22U A24G | 1.01
U38C A86G | 1.65
U2A A23U | 1.24
A96G U120A | 2.74
U3A A52U | 0.58
C46U U127C | 0.86
U49G U122A | 1.35
A30U U70A | 1.71
A69G A96G | 1.52
U49C A89C | 1.36
C6U A135G | 2.17
A47U G99A | 0.23
A5G A13G | 0.89
G84A U108C | 0.01
A95G A116U | 0.45
U39A A82G | 0.44
A23G C113U | 0.05
A117G A118G | 0.59
A66G A95U | 0.2
A18G U87C | 1.27
A60G | 1.14
A67G A96U | 1.03
U2A A68G | 0.8
A5U A69G | 0.36

Variant | self-cleavage
A140G | 1.15
C105U U108C | 0.02
A23G A126G | 0.76
A30G A52G | 1.13
A91C A117G | 2.03
A66U A135U | 0.74
C6U C46U | 1.03
A36G G136U | 1.95
G104A A125G | 0.01
A60U G138A | 1.37
U37C U43G | 1.46
C6A A110G | 0.08
A33G U122A | 0.6
U19C A117C | 0.71
U2A A60C | 1.97
U9C U132G | 1.94
A18G A67U | 1.79
U2G U103C | 0.85
A68G A126U | 0.66
A82U A135U | 0.12
G7U U57C | 1.41
A18G C46U | 1.34
A47G A68G | 1.23
C34U A116G | 0.54

Variant | self-cleavage
A33G A82U | 0.1
A55G A125G | 0.45
A55G A135G | 1.57
C35U A86G | 0.68
A47U A98U | 1.79
U49C A52G | 1.16
U12A A92G | 1.37
G84A A96G | 2.43
A54U A78C | 0.29
A90U G99A | 0.52
A110G A116G | 0.06
A66U U103C | 0.48
A18G C109U | 0.82
A13G A90U | 0.25
U26C A110C | 0.25
A33U U139A | 0.95
G7U A86G | 1.64
U133A G136U | 0.91
A126U A135G | 1.24
G79A A129G | 0.17
A60C U87C | 1.18
G7U A92G | 1.66
A78C G106A | 0.03
A22U A95G | 0.94

Variant | self-cleavage
U2A U39C | 1.26
C40G A134G | 0.82
U43C A59C | 0.12
U2C U9C | 0.83
A78U G84C | 0.11
A66C A92G | 1.21
U19C A82U | 0.21
A117G U127A | 2.7
U70C C109A | 0.16
A24G A91G | 0.65
G50U A116G | 0.75
A98U A110U | 1.67
A23G A111C | 0
A52C A111G | 0
A47G A129G | 0.64
U87C U133G | 1.67
U49G A116G | 0.64
A11G U108A | 0.03
A33U A95G | 1.66
A5U A18G | 1.83
A30G U133C | 1.8
U9C G29U | 2.61
U38A A62G | 1.19
U9C A116G | 0.49

Variant | self-cleavage
A55G A59U | 1.13
U100A U108C | 0.03
A96U A135G | 1.39
A114G U132A | 0.7
U49A A60G | 1.32
U3C A126G | 0.58
A82G U122A | 0.11
U2A A69G | 1.62
U49C A62G | 1.57
U12C A118U | 0.22
A30G G106A | 0.07
U70A A117G | 0.03
A5G A140U | 1.38
U43A A67G | 1.88
U39A U120A | 1.92
A69G U122G | 1.83
U2A U37C | 1.34
U2C U43C | 1.57
U102C C113A | 0.28
A114U U132C | 0.02
C112U A118G | 0
G41A U132C | 1.79
U43C A95U | 0.49
A91U A126U | 1.56

Variant | self-cleavage
A23G U120C | 0.96
A51U U100C | 2.13
A24G G83A | 0.98
A59U A134U | 1.92
A78U U120A | 0.18
A18C A118G | 1.22
A23U A86U | 1.32
A24G A59U | 0.51
C6U G20U | 1.06
A110G A140C | 0.14
U49A G75C | 0.07
U9A A24G | 1.29
A94G A98U | 2.36
C25G U108C | 0.03
G123A A135G | 2.16
U26C G44A | 1.07
A68U A91G | 1.35
U43A A47U | 1.13
A23U U49A | 1.2
A51C G99A | 0.94
A24U A36C | 1.63
A36G U43G | 1.28
A51G A55C | 0.42
G29C A96G | 1.67

Variant | self-cleavage
C6U U43C | 1.58
U38C A78C | 0.46
U120C G138U | 2.11
C76A U131C | 0.08
C85G A86U | 0.31
A22G U57C | 0.91
A11U U108G | 0.08
A18G U38A | 1.27
A114G G123A | 0.12
A23G A69G | 0.91
A4G A78U | 0.63
A30G A66G | 1.21
A62C A125G | 0.58
A55G U103C | 1.06
G65A A116G | 0.45
A24G A56U | 0.97
A111G U124G | 0.01
U103G G137A | 0.1
U39A U120C | 0.95
A11G G106A | 0.06
A5G U127A | 2.43
U43C U132A | 1.82
U39C G138A | 1.78
G50U A66U | 2.16

Variant | self-cleavage
A64G G84C | 0.31
U19C A67U | 1.67
A47G A98U | 0.85
U124C A135C | 0.06
U49A U131C | 1.01
A68U C88U | 2.47
A64U C113U | 0.05
A33U U87A | 2.04
G29A U124A | 0.77
A23G A62G | 0.87
G44C A117G | 1.69
A114G U124G | 0.21
U9A G58U | 0.65
U2C A23U | 1.22
U12C U72C | 0.18
A91U A92G | 1.04
A47G A62G | 0.63
U49C C76U | 0.07
G7A U139C | 1.82
A92G U139G | 1.3
U103C A134G | 1.49
A18C C71U | 0.35
U12A A63U | 1.88
U12C U100A | 0.63

Variant | self-cleavage
A68G A96G | 1.04
A54G A129G | 0.58
U19C G44A | 0.78
U38G A114G | 0.79
A23U U87A | 1.36
U19C U97A | 1.34
A18C A54G | 0.89
G7U U39C | 0.54
U57A U131C | 1.07
A69U A92G | 2.17
A118G U120G | 0.59
G65A U72C | 0.21
U39C U57A | 0.92
A22G G31U | 0.75
G14A A118G | 0.59
U19A U131C | 1.46
U37C U122A | 1.4
A60G C105A | 0.04
U43A U70G | 1.12
C25U U72A | 0.28
U9C A52U | 1.23
A33G A89U | 1.27
U9C A60U | 1.9
A27G A36G | 1.26

Variant | self-cleavage
A82U G123A | 0.19
A4G U124A | 0.48
U2A A117U | 0.49
U39C A86G | 1.19
A68G C105G | 0.03
G7U A47G | 1.17
A5G C88U | 1.02
A62G G80C | 0.13
A89U A140G | 1.61
U72C U108C | 0.01
A62U A90G | 1.26
A86G A129U | 0.57
C17U A91G | 0.42
G29U A59G | 1.31
A64U A78G | 0.47
A18G U97C | 1.42
U39C A82G | 0.67
U37C A95U | 1.73
A11G U124C | 0.34
C45U A51G | 1.58
U120C U122G | 2.61
A82G U131C | 0.45
U108G A118G | 0.01
A36C U103C | 1.44

Variant | self-cleavage
G75C U103G | 0.02
A111G U127A | 0.01
U70C A95G | 1.84
C17A U43A | 1.18
C16U A69G | 0.74
A62G C81U | 0.26
A33U G99A | 1.09
C109U | 0.49
U39C C101U | 0.46
U49A A90G | 0.81
U43C A135U | 0.71
C17A G20A | 1.56
A27G G28A | 0.78
A54G A98U | 2.61
G48A U120C | 1.38
C32U A51G | 1.88
A13G A114G | 0.31
A24G G58U | 1.92
A22G A96C | 1.58
A18U A56G | 1.48
C25U U131C | 1.57
A36C A69C | 1.47
A114C G137A | 0.07
U9C U37A | 2.35

Variant | self-cleavage
C32U A55G | 0.65
U39C A90G | 0.84
U37G A47G | 1.16
U3C U100C | 1.71
U43C U108A | 0.02
A96C A118U | 0.32
A116G U122C | 0.4
A13G U39G | 1.52
A54G A126U | 0.42
C6U A11U | 1.34
U12C A91G | 0.8
G48A U124A | 0.41
A11G A116C | 0.1
U37C U124C | 0.62
C35U A111G | 0.05
A24U U57C | 0.73
U49C G75A | 0.04
U108C U122G | 0
A36G A68U | 1.65
U87A A117G | 1.12
A69U A134G | 1.82
A36G A90C | 1.15

Source: the RNAGym collection of RNA variant scans (doi:10.7554/elife.90254)
